The source of these data is article PMC3958441, “Isl1 and Pou4f2 Form a Complex to Regulate Target Genes in Developing Retinal Ganglion Cells” (PLoS ONE, 2014).

Common to all, as to test: EMSA; EMSA: 20 mM Tris-HCl pH 7.5, 50 mM NaCl, 10 mM DTT, 1 mM EDTA, 5% glycerol, 200 ng dI/dC, 200 ng each protein in 20 ul, 4 C, 30 min; 8% PAGE, 1x TBE, 4 C
Background: Mobility shift assays separate free from complexed probe on a gel.

Data set [1] deals with T1, Isl1D4 (mouse, UniProt P61372 146-349).
T1 sequence: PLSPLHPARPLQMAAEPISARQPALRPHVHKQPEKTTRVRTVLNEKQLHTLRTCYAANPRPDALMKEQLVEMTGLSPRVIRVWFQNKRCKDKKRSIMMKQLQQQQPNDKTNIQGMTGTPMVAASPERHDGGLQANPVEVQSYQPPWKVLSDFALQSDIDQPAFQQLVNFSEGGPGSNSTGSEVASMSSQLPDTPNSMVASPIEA
The conditions noted are these: protein: recombinant; tags: His (C-terminal); (radiolabel, Klenow fill-in); 5' overhang 1 nt at both ends before fill-in.

The target of data set [2] is T2, Isl1D5 (mouse, UniProt P61372 74-349).
T2 sequence: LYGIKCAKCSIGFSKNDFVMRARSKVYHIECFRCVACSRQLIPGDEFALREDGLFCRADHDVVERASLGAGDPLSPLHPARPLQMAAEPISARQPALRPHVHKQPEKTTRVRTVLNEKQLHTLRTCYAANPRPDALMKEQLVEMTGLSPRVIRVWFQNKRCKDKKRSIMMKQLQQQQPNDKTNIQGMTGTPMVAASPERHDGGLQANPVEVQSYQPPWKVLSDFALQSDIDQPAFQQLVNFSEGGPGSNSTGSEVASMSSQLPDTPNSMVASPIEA
The conditions noted are these: protein: recombinant; tags: His (C-terminal); (radiolabel, Klenow fill-in); 5' overhang 1 nt at both ends before fill-in.

In data set [3] the target is T3, Pou4f2D3 (mouse, UniProt Q63934 240-411).
T3 sequence: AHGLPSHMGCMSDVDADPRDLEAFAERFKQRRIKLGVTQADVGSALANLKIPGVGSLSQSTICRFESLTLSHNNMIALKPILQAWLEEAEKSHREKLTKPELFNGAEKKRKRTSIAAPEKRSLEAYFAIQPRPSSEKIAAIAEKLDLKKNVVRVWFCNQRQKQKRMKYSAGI
The conditions noted are these: protein: recombinant; tags: His (C-terminal); (radiolabel, Klenow fill-in); 5' overhang 1 nt at both ends before fill-in.

The target of data set [4] is T4, Isl1 (mouse, UniProt P61372 1-349).
T4 sequence: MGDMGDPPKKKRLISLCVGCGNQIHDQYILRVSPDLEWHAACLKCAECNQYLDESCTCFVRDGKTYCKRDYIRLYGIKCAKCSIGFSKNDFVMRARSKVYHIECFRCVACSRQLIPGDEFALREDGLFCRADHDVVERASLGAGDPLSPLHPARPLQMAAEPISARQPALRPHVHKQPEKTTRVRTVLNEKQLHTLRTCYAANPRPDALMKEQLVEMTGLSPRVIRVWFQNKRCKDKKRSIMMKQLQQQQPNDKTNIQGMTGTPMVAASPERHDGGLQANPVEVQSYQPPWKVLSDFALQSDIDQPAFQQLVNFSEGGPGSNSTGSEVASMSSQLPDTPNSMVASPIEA
The conditions noted are these: protein: recombinant; tags: His (C-terminal, pET-28a); (radiolabel, Klenow fill-in); 5' overhang 1 nt at both ends before fill-in.

In data set [5] the target is T5, Pou4f2D1 (mouse, UniProt Q63934 1-260).
T5 sequence: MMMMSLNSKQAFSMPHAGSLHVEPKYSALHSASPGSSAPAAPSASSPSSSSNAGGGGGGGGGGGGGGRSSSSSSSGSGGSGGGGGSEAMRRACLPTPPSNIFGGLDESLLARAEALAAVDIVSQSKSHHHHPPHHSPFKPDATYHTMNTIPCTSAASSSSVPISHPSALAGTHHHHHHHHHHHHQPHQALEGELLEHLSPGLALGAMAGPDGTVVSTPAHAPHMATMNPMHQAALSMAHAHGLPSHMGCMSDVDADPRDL
The conditions noted are these: protein: recombinant; tags: His (C-terminal); (radiolabel, Klenow fill-in); 5' overhang 1 nt at both ends before fill-in.

In data set [6] the target is T6, Pou4f2 (Brn3b) (mouse, UniProt Q63934 1-411).
T6 sequence: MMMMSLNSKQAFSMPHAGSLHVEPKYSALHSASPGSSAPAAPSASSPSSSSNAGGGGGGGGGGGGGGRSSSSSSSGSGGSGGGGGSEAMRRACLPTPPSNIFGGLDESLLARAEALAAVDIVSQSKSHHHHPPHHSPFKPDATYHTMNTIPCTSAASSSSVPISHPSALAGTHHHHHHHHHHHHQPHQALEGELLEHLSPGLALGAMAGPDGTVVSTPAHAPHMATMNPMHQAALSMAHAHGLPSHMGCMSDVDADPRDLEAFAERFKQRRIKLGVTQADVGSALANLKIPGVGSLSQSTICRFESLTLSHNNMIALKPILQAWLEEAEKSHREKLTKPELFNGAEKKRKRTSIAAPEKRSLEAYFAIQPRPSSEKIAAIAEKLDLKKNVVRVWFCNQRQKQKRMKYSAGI
The conditions noted are these: protein: recombinant; tags: His (C-terminal, pET-28a); (radiolabel, Klenow fill-in); 5' overhang 1 nt at both ends before fill-in.

B1: SBRN3(W) (dsDNA)
DNA 1: GCACACGACCCAATGAATTAATAACCGGGCTG
DNA 2: GCAGCCCGGTTATTAATTCATTGGGTCGTGTG
As to B1, the binding result in data set [1] was “binds”; in data set [2] it was “binds”; in data set [3] it was “binds”; in data set [4], “binds”; in data set [5], “no binding”; in data set [6] it was “binds”.

B2: CBRN3(W) (dsDNA)
DNA 1: GATCTCTCCTGCATAATTAATTACCCCCGGAT
DNA 2: GATCCGGGGGTAATTAATTATGCAGGAGAGAT
Regarding B2, the binding result in data set [1] is listed as “binds”; in data set [2], “binds”; in data set [3], “binds”; in data set [4], “binds”; in data set [5], “no binding”; in data set [6], “binds”.
